Where a SMILES comes first, the peptide text is derived from it. [ ]: non-standard residue; d: D form. The star is where a group is joined. X1 = O=C(CCCCCCCn1cnc2c(Br)c(Br)c(Br)c(Br)c21)*
Key:
Assay in all cases: Kinase panel residual activity
Format in all cases: biochemical
Conditions in all cases: compound at 1 micromolar
[1] = target: T1, EIF2AK3 (Homo sapiens, UniProt Q9NZJ5)
T1 sequence (Q9NZJ5 30-1116): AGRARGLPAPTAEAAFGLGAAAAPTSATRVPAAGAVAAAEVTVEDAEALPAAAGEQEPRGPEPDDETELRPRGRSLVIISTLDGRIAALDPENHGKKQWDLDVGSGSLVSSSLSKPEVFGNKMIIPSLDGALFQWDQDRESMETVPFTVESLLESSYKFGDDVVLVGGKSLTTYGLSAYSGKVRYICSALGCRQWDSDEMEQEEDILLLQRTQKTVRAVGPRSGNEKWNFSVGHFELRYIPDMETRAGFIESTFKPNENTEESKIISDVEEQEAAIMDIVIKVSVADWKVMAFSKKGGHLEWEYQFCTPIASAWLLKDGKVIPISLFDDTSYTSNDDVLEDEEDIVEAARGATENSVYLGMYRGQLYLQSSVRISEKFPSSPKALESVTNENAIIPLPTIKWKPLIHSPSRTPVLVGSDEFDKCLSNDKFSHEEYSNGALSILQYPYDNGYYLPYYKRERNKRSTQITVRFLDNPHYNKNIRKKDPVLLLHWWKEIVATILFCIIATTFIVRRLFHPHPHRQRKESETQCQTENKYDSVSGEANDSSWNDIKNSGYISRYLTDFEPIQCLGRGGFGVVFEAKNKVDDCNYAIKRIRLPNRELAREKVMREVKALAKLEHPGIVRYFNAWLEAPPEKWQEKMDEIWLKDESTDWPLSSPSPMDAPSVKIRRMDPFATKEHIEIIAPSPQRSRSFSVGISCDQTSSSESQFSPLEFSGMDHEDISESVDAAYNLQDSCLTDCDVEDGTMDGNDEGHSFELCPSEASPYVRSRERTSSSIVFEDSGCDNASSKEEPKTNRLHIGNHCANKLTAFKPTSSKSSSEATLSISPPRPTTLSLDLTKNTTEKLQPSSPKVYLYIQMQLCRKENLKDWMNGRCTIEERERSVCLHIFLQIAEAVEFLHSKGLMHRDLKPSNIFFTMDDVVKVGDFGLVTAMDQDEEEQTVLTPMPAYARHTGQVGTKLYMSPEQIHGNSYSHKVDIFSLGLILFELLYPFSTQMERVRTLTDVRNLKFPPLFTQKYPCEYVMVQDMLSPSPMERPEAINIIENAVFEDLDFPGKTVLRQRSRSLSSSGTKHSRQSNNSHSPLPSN

[2] = target: T2, MST2 (Homo sapiens, UniProt Q13188)
T2 sequence (Q13188 1-491): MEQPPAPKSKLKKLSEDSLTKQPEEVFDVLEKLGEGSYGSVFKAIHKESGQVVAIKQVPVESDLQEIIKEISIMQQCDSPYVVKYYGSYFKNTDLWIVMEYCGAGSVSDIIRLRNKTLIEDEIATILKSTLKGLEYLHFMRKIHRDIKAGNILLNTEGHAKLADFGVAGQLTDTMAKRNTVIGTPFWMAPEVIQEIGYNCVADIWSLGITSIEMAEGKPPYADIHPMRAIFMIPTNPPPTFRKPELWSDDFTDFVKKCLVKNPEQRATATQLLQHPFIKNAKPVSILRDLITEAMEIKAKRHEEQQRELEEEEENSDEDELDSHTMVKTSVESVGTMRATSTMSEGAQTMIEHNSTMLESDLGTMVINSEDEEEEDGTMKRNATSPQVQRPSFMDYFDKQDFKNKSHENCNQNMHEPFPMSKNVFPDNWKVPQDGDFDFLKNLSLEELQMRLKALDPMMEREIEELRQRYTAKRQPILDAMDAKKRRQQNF

[3] = target: MARK2 (Homo sapiens, UniProt Q7KZI7)
[4] = target: TESK1 (Homo sapiens, UniProt Q15569)
[5] = target: PIM3 (Homo sapiens, UniProt Q86V86)
[6] = target: PAK4 (Homo sapiens, UniProt O96013)
[7] = target: T3, BRSK1 (Homo sapiens, UniProt Q8TDC3)
T3 sequence (Q8TDC3 1-778): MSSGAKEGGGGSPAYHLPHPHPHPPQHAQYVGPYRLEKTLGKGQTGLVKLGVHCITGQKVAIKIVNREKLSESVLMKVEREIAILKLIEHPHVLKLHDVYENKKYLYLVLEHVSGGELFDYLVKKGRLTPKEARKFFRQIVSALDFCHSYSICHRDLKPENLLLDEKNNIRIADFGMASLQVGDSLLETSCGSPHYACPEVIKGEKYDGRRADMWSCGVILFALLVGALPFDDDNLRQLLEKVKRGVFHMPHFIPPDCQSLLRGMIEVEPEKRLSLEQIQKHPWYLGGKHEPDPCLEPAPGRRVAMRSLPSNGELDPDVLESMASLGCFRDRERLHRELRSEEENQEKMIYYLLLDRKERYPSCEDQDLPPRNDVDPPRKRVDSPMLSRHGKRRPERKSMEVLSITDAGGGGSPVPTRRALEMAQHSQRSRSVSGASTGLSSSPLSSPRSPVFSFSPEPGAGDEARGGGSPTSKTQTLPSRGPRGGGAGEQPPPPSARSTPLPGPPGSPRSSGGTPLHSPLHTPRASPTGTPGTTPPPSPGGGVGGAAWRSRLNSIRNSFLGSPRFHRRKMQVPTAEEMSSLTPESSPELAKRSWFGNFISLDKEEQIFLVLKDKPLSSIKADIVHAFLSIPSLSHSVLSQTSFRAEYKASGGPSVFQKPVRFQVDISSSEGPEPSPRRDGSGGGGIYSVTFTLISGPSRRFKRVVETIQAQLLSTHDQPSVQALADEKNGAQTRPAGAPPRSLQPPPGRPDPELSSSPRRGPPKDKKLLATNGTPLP

[8] = target: PAK2 (Homo sapiens, UniProt Q13177)
Sequence of PAK2 (Q13177 whole entry, species assumed): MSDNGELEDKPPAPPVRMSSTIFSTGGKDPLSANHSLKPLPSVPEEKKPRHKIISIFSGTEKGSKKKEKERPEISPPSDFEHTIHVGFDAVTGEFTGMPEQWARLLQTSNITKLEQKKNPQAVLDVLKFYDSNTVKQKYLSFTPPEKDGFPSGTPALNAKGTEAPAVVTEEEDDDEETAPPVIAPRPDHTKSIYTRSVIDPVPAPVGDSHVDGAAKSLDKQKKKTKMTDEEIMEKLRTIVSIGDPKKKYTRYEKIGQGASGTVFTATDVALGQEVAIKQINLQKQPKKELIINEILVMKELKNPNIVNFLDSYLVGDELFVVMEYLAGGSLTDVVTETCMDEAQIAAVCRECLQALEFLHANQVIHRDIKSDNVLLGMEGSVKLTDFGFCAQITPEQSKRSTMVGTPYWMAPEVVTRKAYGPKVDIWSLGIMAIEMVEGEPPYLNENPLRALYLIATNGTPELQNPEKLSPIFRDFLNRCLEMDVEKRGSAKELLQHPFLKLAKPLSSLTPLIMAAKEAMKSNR

Sequence of PAK4 (O96013 whole entry, species assumed): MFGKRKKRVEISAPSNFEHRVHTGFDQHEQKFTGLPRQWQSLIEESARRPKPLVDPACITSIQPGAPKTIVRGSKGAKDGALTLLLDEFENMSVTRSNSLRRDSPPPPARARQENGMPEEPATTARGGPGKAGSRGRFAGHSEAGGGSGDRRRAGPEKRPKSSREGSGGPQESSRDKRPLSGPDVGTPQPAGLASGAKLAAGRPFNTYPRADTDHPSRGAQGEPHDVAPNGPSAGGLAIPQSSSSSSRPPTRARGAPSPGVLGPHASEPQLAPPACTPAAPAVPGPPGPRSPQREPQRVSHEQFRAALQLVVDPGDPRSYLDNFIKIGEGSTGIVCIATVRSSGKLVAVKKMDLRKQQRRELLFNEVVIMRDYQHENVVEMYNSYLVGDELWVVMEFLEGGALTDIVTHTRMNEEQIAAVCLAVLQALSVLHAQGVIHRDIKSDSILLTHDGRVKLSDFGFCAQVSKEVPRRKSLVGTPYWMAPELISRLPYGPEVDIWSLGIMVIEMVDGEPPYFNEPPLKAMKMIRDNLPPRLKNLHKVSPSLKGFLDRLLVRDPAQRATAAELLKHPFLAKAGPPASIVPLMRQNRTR
Sequence of TESK1 (Q15569 whole entry, species assumed): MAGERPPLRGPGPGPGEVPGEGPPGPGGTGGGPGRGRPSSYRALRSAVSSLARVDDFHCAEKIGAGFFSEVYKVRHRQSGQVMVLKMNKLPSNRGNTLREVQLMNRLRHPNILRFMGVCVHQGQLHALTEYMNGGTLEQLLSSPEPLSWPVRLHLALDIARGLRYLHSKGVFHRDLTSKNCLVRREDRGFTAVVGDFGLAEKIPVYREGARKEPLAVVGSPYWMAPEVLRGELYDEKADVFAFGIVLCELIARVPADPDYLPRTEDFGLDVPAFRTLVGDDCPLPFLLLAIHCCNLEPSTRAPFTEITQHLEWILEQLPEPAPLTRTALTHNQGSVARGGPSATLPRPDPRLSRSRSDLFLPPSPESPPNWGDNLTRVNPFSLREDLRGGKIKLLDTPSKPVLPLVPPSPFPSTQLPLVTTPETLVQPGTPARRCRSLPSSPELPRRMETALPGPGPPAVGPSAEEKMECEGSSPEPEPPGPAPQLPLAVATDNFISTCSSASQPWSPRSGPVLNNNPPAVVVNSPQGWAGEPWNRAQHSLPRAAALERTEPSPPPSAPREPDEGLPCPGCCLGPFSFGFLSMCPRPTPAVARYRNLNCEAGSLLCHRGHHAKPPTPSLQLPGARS
Sequence of MARK2 (Q7KZI7 whole entry, species assumed): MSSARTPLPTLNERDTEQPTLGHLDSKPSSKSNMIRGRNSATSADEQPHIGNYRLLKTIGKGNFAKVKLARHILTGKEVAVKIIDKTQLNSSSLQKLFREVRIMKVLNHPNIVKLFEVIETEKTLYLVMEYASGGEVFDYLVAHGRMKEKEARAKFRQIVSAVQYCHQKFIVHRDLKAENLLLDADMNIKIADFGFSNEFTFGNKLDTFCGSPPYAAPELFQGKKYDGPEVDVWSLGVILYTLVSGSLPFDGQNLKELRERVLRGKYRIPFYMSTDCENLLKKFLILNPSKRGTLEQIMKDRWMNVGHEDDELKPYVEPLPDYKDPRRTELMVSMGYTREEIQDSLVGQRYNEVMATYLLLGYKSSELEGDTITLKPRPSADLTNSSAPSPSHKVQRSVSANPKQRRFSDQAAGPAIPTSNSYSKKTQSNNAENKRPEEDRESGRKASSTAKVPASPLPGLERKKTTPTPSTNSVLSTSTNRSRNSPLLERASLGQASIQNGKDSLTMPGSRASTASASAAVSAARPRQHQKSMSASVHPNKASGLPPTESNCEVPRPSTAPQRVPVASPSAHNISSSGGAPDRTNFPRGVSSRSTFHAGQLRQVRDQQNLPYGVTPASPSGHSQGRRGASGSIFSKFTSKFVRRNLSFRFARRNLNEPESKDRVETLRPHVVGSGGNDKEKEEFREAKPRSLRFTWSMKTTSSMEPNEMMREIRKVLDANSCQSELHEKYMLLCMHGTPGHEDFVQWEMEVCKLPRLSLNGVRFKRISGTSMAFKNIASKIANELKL

Compound: NCCCC[C@H](NC(=O)[C@H](CC(=O)O)NC(=O)[C@H](CC(=O)O)NC(=O)[C@H](CC(=O)O)NC(=O)[C@H](CC(=O)O)NC(=O)[C@H](CC(=O)O)NC(=O)[C@@H](CC(=O)O)NC(=O)CCCCCCCn1cnc2c(Br)c(Br)c(Br)c(Br)c21)C(=O)O [TBBI-OcA-(D-Asp)-(L-Asp)5-(L-Lys)-OH] (X1-[dD]DDDDDK-OH)
- remaining activity at 1 µM [1]: 71%
- remaining activity at 1 µM [2]: 99%
- remaining activity at 1 µM [3]: 66%
- remaining activity at 1 µM [4]: 81%
- remaining activity at 1 µM [5]: 59%
- remaining activity at 1 µM [6]: 71%
- remaining activity at 1 µM [7]: 95%
- remaining activity at 1 µM [8]: 102%

Reference: patent US9176064B2, “Bisubstrate fluorescent probes for protein kinase CK2” (University of Tartu, priority 2012, dated 2015)
